Data taken from paper PMC4514675, “Novel Apo E-Derived ABCA1 Agonist Peptide (CS-6253) Promotes Reverse Cholesterol Transport and Induces Formation of preβ-1 HDL In Vitro” (PLoS ONE, 2015).

Target: ABCA1 (Homo sapiens, UniProt O95477)
Assay: Chemical cross-linking of ABCA1, dimer:monomer ratio (SDS-PAGE)
Format: cell-based
Design: expressed in transfected cells; host or cells: BHK cells, stably transfected, induced with 10 nM mifepristone
Method: Supplementary file pone.0131997.s004.tif: S3 Fig Chemical cross-linking of ABCA1 in intact BHK cells expressing ABCA1. BHK cells in 100-mm diameter dishes were stimulated with 10 nM mifepristone for 18–20 h. BHK cells expressing ABCA1 (100 μg of total protein) in the presence of apo A-I or CS-6253 at same molarity (0.96 μM) were cross-linked or not with 500 μM DSP. Cells were then lysed at 4°C with lysis buffer containing 0.5% n-dodecylmaltoside in the presence of a protease inhibitor mixture followed by low speed centrifugation to remove cell debris. The supernatants were treated or not with 50 mM DTT for 30 min at 37°C and then separated by SDS-PAGE (4–22.5%) in duplicate. After electrophoresis, ABCA1 was detected by an anti-ABCA1 antibody. GAPDH was used as loading control. (TIF) Click here for additional data file. […]

ABCA1, sequence (O95477 whole entry): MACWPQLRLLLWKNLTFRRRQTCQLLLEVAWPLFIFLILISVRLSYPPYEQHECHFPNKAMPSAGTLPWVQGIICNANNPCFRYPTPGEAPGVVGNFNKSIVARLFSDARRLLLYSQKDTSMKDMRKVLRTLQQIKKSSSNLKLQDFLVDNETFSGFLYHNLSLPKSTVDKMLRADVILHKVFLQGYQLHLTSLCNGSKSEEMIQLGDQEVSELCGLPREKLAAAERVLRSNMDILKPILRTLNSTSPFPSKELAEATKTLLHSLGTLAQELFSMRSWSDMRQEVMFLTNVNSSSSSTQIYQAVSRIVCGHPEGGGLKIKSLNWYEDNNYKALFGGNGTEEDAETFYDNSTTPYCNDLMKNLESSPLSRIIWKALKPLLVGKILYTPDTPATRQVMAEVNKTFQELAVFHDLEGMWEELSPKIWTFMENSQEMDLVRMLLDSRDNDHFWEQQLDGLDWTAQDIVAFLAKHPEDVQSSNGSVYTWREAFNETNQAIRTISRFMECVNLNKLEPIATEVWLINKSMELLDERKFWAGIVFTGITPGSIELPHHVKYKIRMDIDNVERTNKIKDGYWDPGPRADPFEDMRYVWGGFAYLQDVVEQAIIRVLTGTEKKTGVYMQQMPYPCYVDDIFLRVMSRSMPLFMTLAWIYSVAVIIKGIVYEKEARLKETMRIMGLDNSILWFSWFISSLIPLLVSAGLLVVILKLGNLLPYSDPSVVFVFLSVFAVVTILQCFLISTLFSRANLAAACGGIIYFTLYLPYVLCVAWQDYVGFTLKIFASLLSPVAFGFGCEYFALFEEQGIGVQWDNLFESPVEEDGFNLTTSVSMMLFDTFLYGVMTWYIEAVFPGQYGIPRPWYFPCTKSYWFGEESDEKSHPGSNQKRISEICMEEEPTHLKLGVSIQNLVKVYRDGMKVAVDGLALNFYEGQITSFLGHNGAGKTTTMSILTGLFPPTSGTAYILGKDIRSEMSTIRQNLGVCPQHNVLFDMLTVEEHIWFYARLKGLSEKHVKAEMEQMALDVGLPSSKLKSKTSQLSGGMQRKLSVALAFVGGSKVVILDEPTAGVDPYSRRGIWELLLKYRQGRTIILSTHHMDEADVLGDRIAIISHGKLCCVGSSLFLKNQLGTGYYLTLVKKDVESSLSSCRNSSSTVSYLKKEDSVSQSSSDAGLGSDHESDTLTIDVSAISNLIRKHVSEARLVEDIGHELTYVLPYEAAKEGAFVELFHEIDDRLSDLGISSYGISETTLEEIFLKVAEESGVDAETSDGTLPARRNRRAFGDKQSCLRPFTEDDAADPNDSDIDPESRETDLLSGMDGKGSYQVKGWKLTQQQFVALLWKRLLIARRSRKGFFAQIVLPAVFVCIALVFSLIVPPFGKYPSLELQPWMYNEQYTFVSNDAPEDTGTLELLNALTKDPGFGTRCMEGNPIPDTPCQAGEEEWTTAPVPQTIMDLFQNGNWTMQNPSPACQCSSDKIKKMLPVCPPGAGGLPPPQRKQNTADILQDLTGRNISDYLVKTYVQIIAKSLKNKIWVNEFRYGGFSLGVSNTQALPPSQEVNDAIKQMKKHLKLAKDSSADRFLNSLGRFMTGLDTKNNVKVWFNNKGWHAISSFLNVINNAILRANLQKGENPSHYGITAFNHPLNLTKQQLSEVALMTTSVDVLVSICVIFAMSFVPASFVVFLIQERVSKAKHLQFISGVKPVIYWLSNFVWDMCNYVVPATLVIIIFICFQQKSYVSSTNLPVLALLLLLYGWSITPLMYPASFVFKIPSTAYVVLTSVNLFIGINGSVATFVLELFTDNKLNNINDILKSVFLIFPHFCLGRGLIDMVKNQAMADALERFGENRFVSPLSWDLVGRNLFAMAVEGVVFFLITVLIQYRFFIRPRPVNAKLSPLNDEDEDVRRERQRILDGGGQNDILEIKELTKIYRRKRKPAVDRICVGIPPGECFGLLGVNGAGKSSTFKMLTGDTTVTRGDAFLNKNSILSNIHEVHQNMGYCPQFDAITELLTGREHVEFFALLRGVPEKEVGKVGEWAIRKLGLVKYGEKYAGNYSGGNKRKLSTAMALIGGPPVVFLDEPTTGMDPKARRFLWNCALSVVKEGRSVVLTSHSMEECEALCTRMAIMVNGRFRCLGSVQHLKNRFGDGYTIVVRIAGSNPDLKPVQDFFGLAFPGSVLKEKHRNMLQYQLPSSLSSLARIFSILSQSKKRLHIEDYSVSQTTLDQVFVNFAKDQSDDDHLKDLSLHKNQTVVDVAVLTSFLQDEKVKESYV

effect on ABCA1 oligomerization (in words) (BHK-ABCA1, DSP cross-linking): causes ABCA1 dimer formation
Substance: apolipoprotein A-I [apo A-I]
ratio of ABCA1 dimer: monomer (0.93 μM (appendix) / 0.96 μM (S3 Fig), DSP 500 μM, densitometry): 69.22%±0.25
